Positions count from the first letter of the chain named.
B1: 1D2 (antibody, human IgG1, V domains shown)
VH: EVHVKQSGPELKKPGETVTISCKASGYTFTTYGMTWVRQAPGKDLEWMGWINTHSGVPIYADDFKGRFAFSLETSAGTAYLQINNLKNEDTATYFCTRRGRLGHYFDYWGQGTSVTVSS
VL: DIVMTQSQKFMSTSVGDRVSVTCKASQNVGTNVAWYQQKPGQSPKLLIYWASTRHTGVPDRFTGSGSGTDFTLTISNVQSEDLADYFCQQYSSYPYTFGGGTKLELK
notes: chimeric, human IgG1/kappa; also called Clone 1D2
B2: 3C11 (antibody, human IgG1, V domains shown)
VH: EVQLQQSGADLMKPGASVKLSCKATGYTFTGYWIEWVKQRPGHGLEWIGEIFPGSVSTNYNEKFKGKATFTADTSSNTAYMQLSSLTTEDSAIYYCARSPIYYDYADYWGQGTTLTVSS
VL: DIVLSQSHKFMSTSVGDRVSITCKASQDVGTAVAWYQQKPGQSPKALIYLASNRHTGVPDRFTGSGSGTDFTLTISNVQSEDLAEYFCQQYNSYPYTFGGGTRLEIK
notes: chimeric, human IgG1/kappa; also called Clone 3C11
B3: hu2H8v29 (antibody, V domains shown)
VH: QVQLVQSGAEVKKPGASVKVSCKASGYTFTNFWIHWVRQAPGQGLEWMGMIDPSDSYTKYNQKFKARATLTVDTSTSTVYMELSSLRSEDTAVYYCARSGVAFPYWGQGTLVTVSS
VL: DIQMTQSPSSLSASVGDRVTITCKASQDVGRNVAWYQQKPGKSPKSLIYSASHRYSGVPSRFSGSGSGTDFTLTISSLQPEDFATYFCQQYNSYPYTFGQGTKVEIK
notes: humanized; also called hu2H8_HC6 + hu2H8_LC5
B4: hu2H8v29.11 (antibody, V domains shown)
VH: B3 VH
VL: B3 VL with N92Y, P95A
notes: captured via human Fc; also called hu2H8_HC6 + hu2H8_LC5.11
B5: hu2H8v29.2 (antibody, V domains shown)
VH: B3 VH
VL: B3 VL with R54N
notes: captured via human Fc; also called hu2H8_HC6 + hu2H8_LC5.2
B6: hu2H8v17 (antibody, V domains shown)
VH: B3 VH
VL: B3 VL with S43A, F87Y
notes: humanized; also called hu2H8_HC6 + hu2H8_LC3
B7: hu2H8v29.6 (antibody, V domains shown)
VH: B3 VH
VL: B3 VL with R54L
notes: captured via human Fc; also called hu2H8_HC6 + hu2H8_LC5.6
B8: hu2H8v29.4 (antibody, V domains shown)
VH: B3 VH
VL: B3 VL with R54Q
notes: captured via human Fc; also called hu2H8_HC6 + hu2H8_LC5.4
B9: hu2H8v29.9 (antibody, V domains shown)
VH: B3 VH
VL: B3 VL with S93A
notes: captured via human Fc; also called hu2H8_HC6 + hu2H8_LC5.9
B10: hu2H8v29.10 (antibody, V domains shown)
VH: B3 VH
VL: B3 VL with N92Y
notes: captured via human Fc; also called hu2H8_HC6 + hu2H8_LC5.10
B11: hu2H8v29.8 (antibody, V domains shown)
VH: B3 VH
VL: B3 VL with N92Q
notes: captured via human Fc; also called hu2H8_HC6 + hu2H8_LC5.8
B12: hu2H8v29.3 (antibody, V domains shown)
VH: B3 VH
VL: B3 VL with R54M
notes: captured via human Fc; also called hu2H8_HC6 + hu2H8_LC5.3
B13: hu2H8v27 (antibody, V domains shown)
VH: B3 VH with V37L, A68V, L70M, V79T
VL: B3 VL
notes: humanized; also called hu2H8_HC3 + hu2H8_LC5
B14: hu2H8v29.5 (antibody, V domains shown)
VH: B3 VH
VL: B3 VL with R54K
notes: captured via human Fc; also called hu2H8_HC6 + hu2H8_LC5.5
B15: hu2H8v29.7 (antibody, V domains shown)
VH: B3 VH
VL: B3 VL with N92S
notes: captured via human Fc; also called hu2H8_HC6 + hu2H8_LC5.7
B16: hu2H8v29.1 (antibody, V domains shown)
VH: B3 VH
VL: B3 VL with R54Y
notes: captured via human Fc; also called hu2H8_HC6 + hu2H8_LC5.1
B17: 4H10 (antibody, human IgG1, V domains shown)
VH: EIQLQQSGPELKKPGETVKISCKTSGYTFTTYGMTWVKQAPGKGLKWMGWINTYSGVPIYADDFKGRSAFSLETSASTAYLQINNLENEDTATYFCARRGSTAHYFDYWGQGTTVTVSS
VL: DIVLTQSHKFMSTSVGDRVSITCKASQDVSTAVAWYQQKPGQSPKLLIYWASTRHTGVPDRFTGSGSGTDYTLTISSVQAEDLALYYCQQHYSTPYTFGGGTKLELK
notes: chimeric, human IgG1/kappa; also called Clone 4H10
B18: 4A4 (antibody, human IgG1, V domains shown)
VH: EVKLMESGPGLVAPSQSLSITCTVSGFSLTSYPINWVRQPPGKGLEWLGVIWTGGSTNYNSALKSRLSISRDNSKSQVFLKMNSLQTDDTARYYCARWDGYFGAFDYWGQGTTVTVSS
VL: DIVMTQTTSSLSASLGDRVTISCRASQDISKYLNWYQQKPDGTVKLLIYYTSRLHSGVPSRFSGSGSGTDYSLTISNLEQEDIATYFCQQSLSLPYTFGGGTRLEIK
notes: chimeric, human IgG1/kappa; also called Clone 4A4
B19: 1D7 (antibody, human IgG1, V domains shown)
VH: EVKLMESGPGLVAPSQSLSISCTVSGFSLTSYGVDWVRQPPGKGLEWLGVVWGGGSTNYNSALMSRLSISKDNSKSQVFLKMNSLQTDDTAMYYCAKRDYFGGLNVWGTGTTVTVSS
VL: B18 VL with S10P, A13V, K39R, Q89H, S91G, L92H, S93K, L94I, R103K, I106L
notes: chimeric, human IgG1/kappa; also called Clone 1D7
B20: 1F1 (antibody, human IgG1, V domains shown)
VH: EVQLQQSGAELMKPGASVKLSCKATGYTFIGYWIDWVKQRPGHGLEWIGEILPGGGSTNHNEKFKGKATFTTDTSSNTVYMQLSSLTTEDSAIYYCAREGSYGNYYFDYWGQGTSVTVSS
VL: DIQMTQTPLSLPVSLGDQASISCRSSQSIVHSNGNTYLEWYLQKPGQSPKLLIYKVSNRFSGVPDRFSGSGSGTDFTLKISRVEAEDLGVYYCFQGSHVPYTFGGGTKLEIK
notes: chimeric, human IgG1/kappa; also called Clone 1F1
B21: 2E1 (antibody, human IgG1, V domains shown)
VH: EVQLQQPGTELVRPGTSVKLSCKASGYTFTNFWMHWVKQRPGQGLEWIGVINPSDTYTKFNQKFRGKATLTVDTSSSTAYMQLSSLTSEDSAVYFCARPTVGLDYWGQGTSVTVSS
VL: DIVMTQSQKFMPTSVGDRVSVTCKASQNVGSNVAWYQQKSGQSPKALIYSASHRYSGVPDRFTGSGSGTDFTLTISNVQSEDLAEYFCQQYNSYPYTFGGGTKLEIK
notes: chimeric, human IgG1/kappa; also called Clone 2E1

Columns and labels:
[1] = target: cellular BACE1 in CHOK1-huAPP cells; assay: cell-based or functional assay
[2] = target: T1, recombinant BACE1 (BACE1 extracellular domain, R&D Systems Cat#931-AS) (UniProt P56817 22-457); assay: SPR Biacore T200, IgG captured, BACE1 analyte
T1 construct: extracellular domain; also called BACE1 extracellular domain protein
T1 sequence (P56817 22-457): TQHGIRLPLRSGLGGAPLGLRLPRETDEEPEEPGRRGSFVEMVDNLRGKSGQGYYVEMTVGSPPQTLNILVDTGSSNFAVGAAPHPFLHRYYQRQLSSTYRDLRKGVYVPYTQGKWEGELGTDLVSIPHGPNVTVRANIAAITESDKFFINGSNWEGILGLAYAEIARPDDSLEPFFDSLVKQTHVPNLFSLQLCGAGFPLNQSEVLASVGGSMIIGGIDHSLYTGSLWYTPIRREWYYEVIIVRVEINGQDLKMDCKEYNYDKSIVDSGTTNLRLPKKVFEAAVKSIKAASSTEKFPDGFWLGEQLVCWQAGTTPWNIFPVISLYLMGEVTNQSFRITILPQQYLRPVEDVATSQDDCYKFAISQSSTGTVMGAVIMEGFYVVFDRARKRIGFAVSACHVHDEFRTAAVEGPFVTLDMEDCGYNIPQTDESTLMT
Procedure: The affinity of chimeric IgG antibodies for recombinant BACE1 was determined by surface plasmon resonance using a Biacore™ T200 instrument. Biacore™ Series S CMS sensor chips were immobilized with monoclonal mouse anti-human IgG (Fc) antibody (e.g., using a human antibody capture kit from GE Healthcare). 1 μg/mL of antibody was captured for 1 minute on each flow cell and serial 3-fold dilutions of recombinant BACE1 were injected at a flow rate of 30 μL/min. Each sample was analyzed with a 3-minute association and a 10-minute dissociation. After each injection, the chip was regenerated using 3M MgCl₂. Binding response was corrected by subtracting the RU from a flow cell capturing an irrelevant IgG at similar density. A 1:1 Langmuir model of simultaneous fitting of kₒₙ and koff was used for analysis of kinetics.

[3] = target: T1, recombinant BACE1 (BACE1 extracellular …); assay: SPR Biacore
[4] = target: cellular BACE1 in CHOK1-huAPP cells; assay: cell-based or functional assay; remark: listed apart in the source
[5] = target: T1, recombinant BACE1 (BACE1 extracellular …); assay: SPR Biacore 8K, antibody captured, BACE1 analyte
Procedure: (§1) The binding affinities of the affinity matured humanized 2H8 variants for BACE1 were determined by surface plasmon resonance using a Biacore™ 8K instrument. […] The binding was monitored for 300 seconds and then dissociation was monitored for 600+ seconds in HBS-EP+ running buffer (GE Healthcare Life Sciences, BR100669). Binding response was corrected by subtracting the RU from a blank flow cell. A 1:1 Langmuir model of simultaneous fitting of kₒₙ and koff was used for kinetics analysis.

[6] = target: T1, recombinant BACE1 (BACE1 extracellular …); assay: SPR Biacore 8K, antibody captured, BACE1 analyte; remark: listed apart in the source
Procedure: as §1

Row | Binder | % Max Inhibition [1] | Cellular IC50 [1] | Kd [2] | koff [2] | kon [2] | Kd [5] | other results
1 | B1 | 47% | 4 nM | 3.1 nM | 0.00024 s⁻¹ | 78000 M⁻¹ s⁻¹ |  | 
2 | B2 | 56% | 36 nM | 61 nM | 0.0013 s⁻¹ | 21000 M⁻¹ s⁻¹ |  | 
3 | B3 |  |  |  |  |  | 9.21 nM | Kd [3]: 12 nM; IC50 [4]: 14.8 nM; Max. % inhibition [4]: 86%; Kd [6]: 9.21 nM
4 | B4 |  |  |  |  |  | 4.83 nM | 
5 | B5 |  |  |  |  |  | 8.16 nM | 
6 | B6 |  |  |  |  |  |  | Kd [3]: 12.1 nM; IC50 [4]: 22.1 nM; Max. % inhibition [4]: 91%
7 | B7 |  |  |  |  |  | 7.51 nM | 
8 | B8 |  |  |  |  |  | 6.53 nM | 
9 | B9 |  |  |  |  |  | 11 nM | 
10 | B10 |  |  |  |  |  | 4.84 nM | 
11 | B11 |  |  |  |  |  | 8.1 nM | 
12 | B12 |  |  |  |  |  | 6.93 nM | 
13 | B13 |  |  |  |  |  |  | Kd [3]: 12.8 nM; IC50 [4]: 16.5 nM; Max. % inhibition [4]: 85%
14 | B14 |  |  |  |  |  | 8.21 nM | 
15 | B15 |  |  |  |  |  | 4.99 nM | 
16 | B16 |  |  |  |  |  | 7.22 nM | 
17 | B17 | 46% | 18 nM | 23 nM | 0.0022 s⁻¹ | 96000 M⁻¹ s⁻¹ |  | 
18 | B18 | 53% | 17 nM | 15 nM | 0.0012 s⁻¹ | 83000 M⁻¹ s⁻¹ |  | 
19 | B19 | 55% | 4 nM | 16 nM | 0.00095 s⁻¹ | 59000 M⁻¹ s⁻¹ |  | 
20 | B20 | 63% | 11 nM | 5 nM | 0.00024 s⁻¹ | 49000 M⁻¹ s⁻¹ |  | 
21 | B21 | 63% | 34 nM | 71 nM | 0.0013 s⁻¹ | 18000 M⁻¹ s⁻¹ |  | 

Source: patent US20210070881A1 (DENALI THERAPEUTICS, published 2021)
